Source: publication PMC2175199 (The Journal of Cell Biology, 2000)

What was measured:
XSA2 = biological target: T1, XSA2 (Xenopus laevis (endogenous in egg …, UniProt Q9DGN0 1-1194)); experiment: co-IP
T1 sequence: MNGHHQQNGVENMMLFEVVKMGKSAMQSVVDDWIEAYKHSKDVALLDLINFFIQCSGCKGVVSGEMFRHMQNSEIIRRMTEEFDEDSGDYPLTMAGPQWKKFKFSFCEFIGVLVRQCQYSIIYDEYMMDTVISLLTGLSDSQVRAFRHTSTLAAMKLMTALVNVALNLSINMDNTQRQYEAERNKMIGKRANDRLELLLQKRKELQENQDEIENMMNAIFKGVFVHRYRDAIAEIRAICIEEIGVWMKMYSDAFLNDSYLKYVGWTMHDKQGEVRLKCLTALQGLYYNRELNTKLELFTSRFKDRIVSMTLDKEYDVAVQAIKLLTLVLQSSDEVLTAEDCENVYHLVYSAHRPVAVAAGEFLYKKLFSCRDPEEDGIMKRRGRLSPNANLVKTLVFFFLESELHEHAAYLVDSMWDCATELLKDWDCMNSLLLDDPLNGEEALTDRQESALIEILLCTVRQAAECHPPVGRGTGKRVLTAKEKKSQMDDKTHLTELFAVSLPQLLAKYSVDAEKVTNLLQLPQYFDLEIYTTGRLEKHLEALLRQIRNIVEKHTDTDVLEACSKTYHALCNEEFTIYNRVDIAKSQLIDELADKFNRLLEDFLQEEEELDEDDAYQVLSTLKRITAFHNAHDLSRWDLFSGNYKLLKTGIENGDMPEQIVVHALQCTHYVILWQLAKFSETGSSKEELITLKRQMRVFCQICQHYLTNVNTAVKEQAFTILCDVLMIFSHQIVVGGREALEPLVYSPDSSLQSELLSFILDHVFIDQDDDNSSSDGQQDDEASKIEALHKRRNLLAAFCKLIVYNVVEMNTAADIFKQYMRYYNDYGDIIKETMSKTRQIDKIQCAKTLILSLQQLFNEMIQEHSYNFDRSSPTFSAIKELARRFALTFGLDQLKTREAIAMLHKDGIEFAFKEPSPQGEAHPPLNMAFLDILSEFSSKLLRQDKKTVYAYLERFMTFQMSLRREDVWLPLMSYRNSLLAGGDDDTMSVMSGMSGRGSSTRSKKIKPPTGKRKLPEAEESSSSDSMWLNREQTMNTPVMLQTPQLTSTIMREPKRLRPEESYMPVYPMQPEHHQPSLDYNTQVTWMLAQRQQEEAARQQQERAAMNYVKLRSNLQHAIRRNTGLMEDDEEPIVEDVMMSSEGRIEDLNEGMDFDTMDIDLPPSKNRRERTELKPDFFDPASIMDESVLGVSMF

XSA1 = biological target: T2, XSA1 (Xenopus laevis (endogenous in egg …, UniProt Q9DGN1 1-1265)); experiment: co-IP
T2 sequence: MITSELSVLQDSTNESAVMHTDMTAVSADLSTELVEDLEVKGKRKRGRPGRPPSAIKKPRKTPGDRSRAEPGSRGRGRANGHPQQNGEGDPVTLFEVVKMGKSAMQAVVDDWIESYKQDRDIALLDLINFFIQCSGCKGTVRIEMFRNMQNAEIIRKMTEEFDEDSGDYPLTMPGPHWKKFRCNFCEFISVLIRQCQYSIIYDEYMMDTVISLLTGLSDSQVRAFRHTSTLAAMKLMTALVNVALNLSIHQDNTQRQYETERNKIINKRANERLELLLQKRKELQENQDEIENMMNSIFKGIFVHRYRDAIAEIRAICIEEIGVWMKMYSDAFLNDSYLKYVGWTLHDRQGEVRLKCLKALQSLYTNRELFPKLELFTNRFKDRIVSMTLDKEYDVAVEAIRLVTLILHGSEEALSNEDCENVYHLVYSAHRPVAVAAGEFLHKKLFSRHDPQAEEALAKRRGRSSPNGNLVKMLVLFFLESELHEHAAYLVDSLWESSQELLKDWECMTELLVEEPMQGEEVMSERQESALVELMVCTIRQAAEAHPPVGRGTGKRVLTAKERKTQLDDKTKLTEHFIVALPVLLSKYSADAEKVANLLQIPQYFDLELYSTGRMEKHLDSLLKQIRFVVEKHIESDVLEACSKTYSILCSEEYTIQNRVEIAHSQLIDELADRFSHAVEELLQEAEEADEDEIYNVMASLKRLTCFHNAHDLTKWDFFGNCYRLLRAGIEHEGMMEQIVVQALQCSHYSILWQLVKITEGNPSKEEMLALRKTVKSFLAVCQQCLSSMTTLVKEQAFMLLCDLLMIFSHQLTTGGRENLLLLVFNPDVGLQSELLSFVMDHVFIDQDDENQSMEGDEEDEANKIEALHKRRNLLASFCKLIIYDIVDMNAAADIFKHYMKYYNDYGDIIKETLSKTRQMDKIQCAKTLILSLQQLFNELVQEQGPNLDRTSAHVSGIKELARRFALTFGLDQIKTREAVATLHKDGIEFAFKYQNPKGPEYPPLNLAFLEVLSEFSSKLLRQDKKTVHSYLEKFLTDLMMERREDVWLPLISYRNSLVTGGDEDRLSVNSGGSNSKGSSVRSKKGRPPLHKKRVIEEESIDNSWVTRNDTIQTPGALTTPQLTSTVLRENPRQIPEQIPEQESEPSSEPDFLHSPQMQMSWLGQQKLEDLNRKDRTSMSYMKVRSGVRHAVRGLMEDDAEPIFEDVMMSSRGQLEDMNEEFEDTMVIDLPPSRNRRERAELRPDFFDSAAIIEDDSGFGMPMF

B1: XRAD21 (natural protein)
chain: MFYAHFVLSKRGPLAKIWLAAHWDKKLTKAHVFECNLESSVESIICPKVKMALRTSGHLLLGVVRIYHRKAKYLLADCNEAFIKIKMAFRPGVVDLPEENREAAYNAITLPEEFHDFDQPLPDLDDIDVAQQFSLNQSRVEEITMREEVSNINILQDNDFGDFGMDDREMMREGSAFEDDMLTTNASNLKLEPEQSTSQLNEKSNHLEYDDQYKDDNFGEGNEGGILDDKLLSNDAGGIFDDPPAMPEEGVAMPEQPVHDDLDDDDNVSMGAPDSPDSVDPVEPLPTMTDQTTLVPNEEEAFALEPIDITVKETKAKRKRKLIVDSVKELDSKTIRAQLSDYSDIVTTLDLAPPTKKLMMWKETGGVEKLFSLPAQPLWNTRLLKLFTRCLTPLVLDDLRKRRKGGEADNLDEFLKEFENPEVPREELRPQDVIDQPILEEASHLQESLMEGSRTHLDDTIMPPPPPKQGVKRDSLQMEPEPMPMMQEAEPQIEMPPPPLPPPLELPPEEPQSISDLIPELNLLPEKEKEKDEEEEEEEEDTTGTEQDQEERRWNKRTQQMLHGLQRVLAKTGAESISLLDLCRNTNRKQAAAKFYSFLVLKKQQAIELTQREPYSDIVATPGPRFHTV
percent depleted from the extract by anti-XSA2 (XSA2): ~10% | percent depleted from the extract by anti-XSA1 (XSA1): ~90%
